Assay results: US20190040130A1 (Alector, published 2019)
Residue numbers refer to the chain shown, from its start. In names and notes the source's numbering stands.

Tests used:
[1] = molecular target: T1, human TREM2 expressed on cells (human, UniProt Q9NZC2 19-230); test: FACS, BW cells
T1 construct: also called huT2 BW; cell expressed TREM2
T1 sequence: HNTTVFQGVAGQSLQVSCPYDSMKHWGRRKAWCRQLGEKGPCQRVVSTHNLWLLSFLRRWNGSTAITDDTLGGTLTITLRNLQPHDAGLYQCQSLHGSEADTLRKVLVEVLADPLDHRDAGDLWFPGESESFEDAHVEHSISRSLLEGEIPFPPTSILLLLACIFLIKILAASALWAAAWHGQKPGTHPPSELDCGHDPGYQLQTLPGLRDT
Experimental: To examine cell binding of anti-TREM2 antibodies, recombinant, human TREM2-expressing BW5147. G.1.4 cells (ATCC® TIB48™) were established by stably expressing either mouse TREM2 or human TREM2 together with Dap12 using viral infection. Cells were harvested by scraping, washed in PBS, counted and plated on 96-well U bottom plates at 1×10⁵ cells/well. The plates were spun at 1,400 rpm for 3 minutes and primary anti-TREM2 or control antibodies were added in FACS buffer (PBS+2% FBS) and incubated on ice for one hour. Cells were subsequently centrifuged as before and washed thrice with FACS buffer. Cells were then incubated with anti-human PE conjugated secondary antibody (BD Biosciences) in FACS buffer for 30 minutes on ice. Cells were again washed thrice with FACS buffer and analyzed on a BD FACS Canto. Binding was measured as mean fluorescence intensity in the […].

[2] = molecular target: T2, human TREM2/DAP12 fusion protein in BW5147.G.1.4 NFAT-luciferase reporter cells (human, UniProt O43914 41-113, limits assumed); test: cell-based or functional assay
[3] = molecular target: T2, human TREM2/DAP12 fusion protein in …; test: cell-based or functional assay; remark: listed apart in the source
[4] = molecular target: T2, human TREM2/DAP12 fusion protein in …; test: cell-based or functional assay; remark: listed apart in the source
[5] = molecular target: T2, human TREM2/DAP12 fusion protein in …; test: cell-based or functional assay; remark: listed apart in the source
[6] = molecular target: T2, human TREM2/DAP12 fusion protein in …; test: cell-based or functional assay; remark: listed apart in the source
[7] = molecular target: T1, human TREM2 expressed on cells; test: cell-based or functional assay
[8] = molecular target: T2, human TREM2/DAP12 fusion protein in …; test: cell-based or functional assay; remark: listed apart in the source
[9] = molecular target: T2, human TREM2/DAP12 fusion protein in …; test: cell-based or functional assay; remark: listed apart in the source
[10] = molecular target: T2, human TREM2/DAP12 fusion protein in …; test: cell-based or functional assay; remark: listed apart in the source

B1: AL2p (parental mouse anti-TREM2 antibody) (antibody, human IgG1, V domains shown)
VH: QVQLQQSGPELVKPGASLKISCKASGYAFSSSWMNWVKQRPGKGLEWIGRIYPGDGDTNYNGEFRVRATLTADTSSTTAYMQLSSLTSEDSAVYFCARLLRNQPGESYAMDYWGQGASVTVSS
VL: DVVMTQTPLSLPVSLGDQASISCRSSQSLVHSNGYTYLHWYLQKPGQSPKLLIYKVSNRFSGVPDRFSGSGSGTDFTLKISRVEADDLGVYFCSQSTRVPYTFGGGTKLEIK
notes: Mouse variable regions; tested as Fab, as human-mouse chimera (human IgG1 Fc) and as msIgG1; see assay; also called 9F5; 9F5a
[1]
  Cell binding (FOB): 79 fold over background
[2]
  EC50 (read off the curve); NFAT:luciferase luminescence, BWZ reporter cells, soluble antibody, 6 h: ~2 µg/mL
[3]
  EC50 (read off the curve); NFAT:luciferase luminescence, BWZ reporter cells co-cultured 1:1 with THP-1 cells, 6 h: ~1 µg/mL

B2: AL2p-h32 (antibody, IgG1, V domains shown)
VH: QVQLVQSGAEVKKPGSSVKVSCKASGYAFSSSWMNWVRQAPGQGLEWIGRIYPGDGDTNYNGEFRVRATLTADTSTTTAYMELSSLRSEDTAVYFCARLLRNQPGESYAMDYWGQGTLVTVSS
VL: B1 VL with P12S, S14T, L15P, D17Q, Q18P, K50Q, D86E, G105Q
notes: IgG1; Fab in monovalent BLI
[1]
  Cell binding (FOB): 81 fold over background

B3: AL2p-h25 (antibody, IgG1, V domains shown)
VH: B2 VH with S16A, V18L, V20I, T77S, F95Y, T117A
VL: B1 VL with P12S, S14T, L15P, D17Q, Q18P, K50Q, D86E, G105Q
notes: IgG1; Fab in monovalent BLI
[1]
  Cell binding (FOB): 90 fold over background

B4: AL2p huIgG1 E430G (antibody, V domains shown)
VH: B1 VH
VL: B1 VL
[3]
  EC50 (read off the curve); NFAT:luciferase luminescence, BWZ reporter cells co-cultured 1:1 with THP-1 cells, 6 h: ~0.3 µg/mL

B5: AL2p-h27 (antibody, IgG1, V domains shown)
VH: B2 VH with S16A, T77S
VL: B1 VL with P12S, S14T, L15P, D17Q, Q18P, K50Q, D86E, G105Q
notes: IgG1; Fab in monovalent BLI
[1]
  Cell binding (FOB): 78 fold over background

B6: AL2p-h24 (antibody, IgG1, V domains shown)
VH: B2 VH with K12V, S16A, V18L, V20I, G62Q, E63K, R65Q, V66G, T77S, T117A
VL: B1 VL with P12S, S14T, L15P, D17Q, Q18P, K50Q, D86E, G105Q
notes: IgG1; Fab in monovalent BLI
[1]
  Cell binding (FOB): 69 fold over background

B7: AL2p-58 (antibody, V domains shown)
VH: QVQLVQSGAEVKKPGASVKVSCKASGYAFSSQWMNWVRQAPGQRLEWIGRIYPGGGDTNYAGKFQGRVTITADTSASTAYMELSSLRSEDTAVYYCARLLRNQPGESYAMDYWGQGTLVTVSS
VL: DVVMTQSPDSLAVSLGERATINCRSSQSLVHSNRYTYLHWYQQKPGQSPKLLIYKVSNRFSGVPDRFSGSGSGTDFTLKISRVEAEDVGVYYCSQSTRVPYTFGQGTKLEIK
[4]
  EC50 (read off the curve); NFAT:luciferase luminescence, BW reporter cells, soluble IgG: ~1 µg/mL

B8: AL2p-31 msFc (antibody, V domains shown)
VH: B7 VH with A16S, R44G, I48M, G62R, T74E, A76T
VL: GVVMTQTPLSLSVTPGQPASISCRSSQSLVHSNGYTYLHWYLQKPGQSPQLLIYKVSNRRSGVPDRFSGSGSGTDFTLKISRVEAEDVGVYYCSQSTRVPYTFGQGTKLEIK
[5]
  EC50 (read off the curve); NFAT:luciferase luminescence, BWZ reporter cells, soluble IgG: ~0.8 µg/mL
[6]
  EC50 (read off the curve); NFAT:luciferase luminescence, BWZ reporter cells, plate bound IgG: ~3 µg/mL

B9: AL2p-h43 (antibody, IgG1, V domains shown)
VH: B2 VH with S16A, V18L, G44R, T76A, T77S
VL: B8 VL with G1D, R60F
notes: IgG1; Fab in monovalent BLI
[1]
  Cell binding (FOB): 91 fold over background

B10: AL2p-60 (antibody, IgG1, V domains shown)
VH: B7 VH with A16S, R44G, I48M, G62R, T74E, A76T
VL: B8 VL with G34R
[7]
  viability EC50, dendritic cells D558: 0.152 nM
  viability EC50, dendritic cells D559: 0.244 nM
  viability EC50, dendritic cells D560: 0.178 nM
  viability EC50, macrophages D559: 0.194 nM
  viability EC50, macrophages D560: 0.154 nM

B11: AL2p-58 msFc (antibody)
chain 1: B7 VH
chain 2: B7 VL
[5]
  EC50 (read off the curve); NFAT:luciferase luminescence, BWZ reporter cells, soluble IgG: ~0.7 µg/mL

B12: AL2p-h90 (antibody, IgG1, V domains shown)
VH: B7 VH with Q32S, G55D, G62Q
VL: DVQMTQSPSSLSASVGDRVTITCRSSQSLVHSNGYTYLHWYQQKPGKSPKLLIYKVSNRFSGVPSRFSGSGSGTDFTLTISSLQPEDFATYYCSQSTRVPYTFGGGTKVEIK
notes: IgG1; Fab in monovalent BLI
[1]
  Cell binding (FOB): 126 fold over background

B13: AL2p-14 (antibody, IgG1, V domains shown)
VH: B7 VH with A16S, Q32H, R44G, I48M, G55D, G62Q, T74E, A76T
VL: B8 VL with Q27R, R60F
[8]
  Luciferase activation plate bound 33 nM IgG: 22.1 FOC

B14: AL2p-59 (antibody, V domains shown)
VH: B7 VH with A16S, Q32H, R44G, I48M, G55E, D57Q, G62Q, F64R, T74E, A76T
VL: B8 VL with S25T, G34Q, R60V
[4]
  EC50 (read off the curve); NFAT:luciferase luminescence, BW reporter cells, soluble IgG: ~2 µg/mL

B15: AL2p-h76 (antibody, IgG1, V domains shown)
VH: B7 VH with Q32S, G55D, G62Q, V68A, Y95F
VL: B7 VL with R34G, K79T, R82S, V83L, E84Q, G89A, Q105G, L109V
notes: IgG1; Fab in monovalent BLI
[1]
  Cell binding (FOB): 86 fold over background
[9]
  Soluble luciferase activation at 10 µg/ml: 6.52 fold over control

B16: AL2p-58 huIgG1 PSEG (antibody)
heavy: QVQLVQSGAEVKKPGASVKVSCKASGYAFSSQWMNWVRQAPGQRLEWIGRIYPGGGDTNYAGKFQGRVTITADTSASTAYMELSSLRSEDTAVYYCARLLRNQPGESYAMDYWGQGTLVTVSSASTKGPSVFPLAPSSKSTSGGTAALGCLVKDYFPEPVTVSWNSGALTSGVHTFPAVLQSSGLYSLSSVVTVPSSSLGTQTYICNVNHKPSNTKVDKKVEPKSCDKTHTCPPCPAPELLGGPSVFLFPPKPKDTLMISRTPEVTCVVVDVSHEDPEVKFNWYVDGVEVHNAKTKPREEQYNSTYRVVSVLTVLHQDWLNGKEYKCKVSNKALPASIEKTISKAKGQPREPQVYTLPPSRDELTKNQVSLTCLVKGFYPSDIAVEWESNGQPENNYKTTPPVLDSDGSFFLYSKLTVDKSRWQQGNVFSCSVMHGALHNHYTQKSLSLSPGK
light: DVVMTQSPDSLAVSLGERATINCRSSQSLVHSNRYTYLHWYQQKPGQSPKLLIYKVSNRFSGVPDRFSGSGSGTDFTLKISRVEAEDVGVYYCSQSTRVPYTFGQGTKLEIKRTVAAPSVFIFPPSDEQLKSGTASVVCLLNNFYPREAKVQWKVDNALQSGNSQESVTEQDSKDSTYSLSSTLTLSKADYEKHKVYACEVTHQGLSSPVTKSFNRGEC
[10]
  plate bound signal activation, fold over AL2p: 10 fold
